Reference: the Immune Epitope Database (IEDB)
Each block holds one sequence with its values, some of them ahead of it.

Experiments:
Assay in all cases: IEDB peptide-MHC binding, purified MHC/competitive/radioactivity; filed as Kd, often an IC50 or EC50 that approximates it; ≥ and ≤ were set here for values at or beyond the usual limits of such assays
HLA-A*02:02 = biological target: HLA-A*02:02
HLA-A*02:06 = biological target: HLA-A*02:06
HLA-A*02:03 = biological target: HLA-A*02:03
HLA-A*31:01 = biological target: HLA-A*31:01
HLA-A*11:01 = biological target: HLA-A*11:01
HLA-A*33:01 = biological target: HLA-A*33:01
HLA-A*03:01 = biological target: HLA-A*03:01
HLA-A*68:01 = biological target: HLA-A*68:01
[1] = source organism: SARS coronavirus Tor2
[2] = source organism: Vaccinia virus WR
[3] = source organism: Mammarenavirus guanaritoense
[4] = source organism: Mammarenavirus whitewaterense
[5] = source organism: Mammarenavirus brazilense
[6] = source organism: Dengue virus 3 Martinique/1243/1999
[7] = source organism: Lassa virus Josiah
[8] = source organism: Mammarenavirus lassaense

Sequence: AIYVFCISL
Kd (HLA-A*02:02; [1]): 143 nM
Kd (HLA-A*02:06; [1]): 47.7 nM
Kd (HLA-A*02:03; [1]): 201 nM

Sequence: ALVCYIVMPV
Kd (HLA-A*02:02; [1]): 1.2 nM
Kd (HLA-A*02:06; [1]): 2.92 nM
Kd (HLA-A*02:03; [1]): 4.4 nM

Sequence: ALVSDCAST
Kd (HLA-A*02:02; [2]): 701 nM
Kd (HLA-A*02:06; [2]): 311 nM
Kd (HLA-A*02:03; [2]): 31.1 nM

Sequence: CVDHPFIYVI
Kd (HLA-A*02:02; [2]): 964 nM
Kd (HLA-A*02:06; [2]): 1610 nM
Kd (HLA-A*02:03; [2]): 10800 nM

Sequence: DITNILGGV
Kd (HLA-A*02:02; [2]): 9880 nM
Kd (HLA-A*02:06; [2]): 7430 nM
Kd (HLA-A*02:03; [2]): 1640 nM

Sequence: DLNIFMTLV
Kd (HLA-A*02:02; [2]): 1910 nM
Kd (HLA-A*02:06; [2]): 2190 nM
Kd (HLA-A*02:03; [2]): 556 nM

Sequence: DMICCDSRIV
Kd (HLA-A*02:02; [2]): 11300 nM
Kd (HLA-A*02:06; [2]): 18900 nM
Kd (HLA-A*02:03; [2]): 6080 nM

Sequence: DQLVFNSISA
Kd (HLA-A*02:02; [2]): 206 nM
Kd (HLA-A*02:06; [2]): 759 nM
Kd (HLA-A*02:03; [2]): 289 nM

Sequence: DVNSVQFSIL
Kd (HLA-A*02:02; [2]): 2270 nM
Kd (HLA-A*02:06; [2]): 3400 nM
Kd (HLA-A*02:03; [2]): 1660 nM

Sequence: EIVKNIREGT
Kd (HLA-A*02:02; [2]): ≥ 28500 nM
Kd (HLA-A*02:06; [2]): ≥ 60700 nM
Kd (HLA-A*02:03; [2]): 8530 nM

Sequence: ELAYYNSCML
Kd (HLA-A*02:02; [2]): 1870 nM
Kd (HLA-A*02:06; [2]): 3570 nM
Kd (HLA-A*02:03; [2]): 151 nM

Kd (HLA-A*02:06; source organism: Homo sapiens): ≥ 43400 nM
Sequence: ELVKHGLRAL

Sequence: EVLMSPCRM
Kd (HLA-A*02:02; [2]): 6830 nM
Kd (HLA-A*02:06; [2]): 11800 nM
Kd (HLA-A*02:03; [2]): 651 nM

Sequence: FIASAPQQL
Kd (HLA-A*02:02; [2]): 1.97 nM
Kd (HLA-A*02:06; [2]): 89.4 nM
Kd (HLA-A*02:03; [2]): 4.39 nM

Sequence: FLAFLLFLVL
Kd (HLA-A*02:02; [1]): 13.2 nM
Kd (HLA-A*02:06; [1]): 2000 nM
Kd (HLA-A*02:03; [1]): 245 nM

Sequence: FLTNKLLLFA
Kd (HLA-A*02:02; [1]): 0.417 nM
Kd (HLA-A*02:06; [1]): 7.47 nM
Kd (HLA-A*02:03; [1]): 1.41 nM

Kd (HLA-A*02:03; source organism: Homo sapiens): 1.1 nM
Sequence: FMECNLNEL

Sequence: FMNDLQVSR
Kd (HLA-A*02:02; [3]): 249 nM
Kd (HLA-A*02:06; [3]): ≥ 33600 nM
Kd (HLA-A*02:03; [3]): 914 nM

Sequence: FSAVISGSV
Kd (HLA-A*02:02; [4]): 48.2 nM
Kd (HLA-A*02:06; [4]): 161 nM
Kd (HLA-A*02:03; [4]): 14100 nM

Sequence: FVNFVKDMI
Kd (HLA-A*02:02; [2]): 55.2 nM
Kd (HLA-A*02:06; [2]): 229 nM
Kd (HLA-A*02:03; [2]): 124 nM

Sequence: GIIITVGML
Kd (HLA-A*02:02; [2]): 8670 nM
Kd (HLA-A*02:06; [2]): 18400 nM
Kd (HLA-A*02:03; [2]): 349 nM

Kd (HLA-A*02:06; source organism: Homo sapiens): ≥ 69800 nM
Kd (HLA-A*02:03; source organism: Homo sapiens): 1.05 nM
Sequence: GLKSKTHAVL

Sequence: HLENDKIEDL
Kd (HLA-A*02:02; [2]): 526 nM
Kd (HLA-A*02:06; [2]): 10600 nM
Kd (HLA-A*02:03; [2]): 414 nM

Sequence: HQRRLVKLL
Kd (HLA-A*02:02; [2]): 15900 nM
Kd (HLA-A*02:06; [2]): ≥ 21300 nM
Kd (HLA-A*02:03; [2]): 1680 nM

Sequence: HSLPRCWLV
Kd (HLA-A*02:02; [5]): 654 nM
Kd (HLA-A*02:06; [5]): 322 nM
Kd (HLA-A*02:03; [5]): 146 nM

Sequence: IAGGVCYYLL
Kd (HLA-A*02:02; [2]): 4580 nM
Kd (HLA-A*02:06; [2]): 656 nM
Kd (HLA-A*02:03; [2]): 14600 nM

Sequence: IASGQRCHFI
Kd (HLA-A*02:02; [2]): 526 nM
Kd (HLA-A*02:06; [2]): 256 nM
Kd (HLA-A*02:03; [2]): 8320 nM

Sequence: IASKINNNRI
Kd (HLA-A*02:02; [2]): 732 nM
Kd (HLA-A*02:06; [2]): 9420 nM
Kd (HLA-A*02:03; [2]): 18500 nM

Sequence: IIGHIGHHYI
Kd (HLA-A*02:02; [2]): 400 nM
Kd (HLA-A*02:06; [2]): 1350 nM
Kd (HLA-A*02:03; [2]): 186 nM

Sequence: IINSVSIILA
Kd (HLA-A*02:02; [2]): 719 nM
Kd (HLA-A*02:06; [2]): 957 nM
Kd (HLA-A*02:03; [2]): 890 nM

Sequence: IISTDQDTM
Kd (HLA-A*02:02; [2]): 4300 nM
Kd (HLA-A*02:06; [2]): 2360 nM
Kd (HLA-A*02:03; [2]): ≥ 33200 nM

Sequence: IMTSTRTIIL
Kd (HLA-A*02:02; [2]): 1020 nM
Kd (HLA-A*02:06; [2]): 438 nM
Kd (HLA-A*02:03; [2]): 52.5 nM

Sequence: IVLEFFMMVL
Kd (HLA-A*02:06; [6]): 107 nM

Sequence: KAMHDKKIDI
Kd (HLA-A*02:02; [2]): ≥ 70000 nM
Kd (HLA-A*02:06; [2]): ≥ 26400 nM
Kd (HLA-A*02:03; [2]): ≥ 46200 nM

Sequence: KILSDENYL
Kd (HLA-A*02:02; [2]): 196 nM
Kd (HLA-A*02:06; [2]): 27.6 nM
Kd (HLA-A*02:03; [2]): 1170 nM

Sequence: KLLNMRDLIV
Kd (HLA-A*02:02; [2]): 194 nM
Kd (HLA-A*02:06; [2]): 2.77 nM
Kd (HLA-A*02:03; [2]): 29.4 nM

Sequence: KLLYAAEMV
Kd (HLA-A*02:02; [2]): 57.6 nM
Kd (HLA-A*02:06; [2]): 17.9 nM
Kd (HLA-A*02:03; [2]): 54.3 nM

Sequence: KQNKFGDSPL
Kd (HLA-A*02:02; [2]): 89.6 nM
Kd (HLA-A*02:06; [2]): 5080 nM
Kd (HLA-A*02:03; [2]): 216 nM

Sequence: KTVAGSFAS
Kd (HLA-A*02:02; [4]): 1590 nM
Kd (HLA-A*02:06; [4]): 9130 nM
Kd (HLA-A*02:03; [4]): 3810 nM

Sequence: KVVGLYGNGV
Kd (HLA-A*02:06; source organism: Dengue virus 2 Jamaica/1409/1983): 11.8 nM

Sequence: LAEHISDSI
Kd (HLA-A*02:02; [2]): 45.2 nM
Kd (HLA-A*02:06; [2]): 19200 nM
Kd (HLA-A*02:03; [2]): 731 nM

Sequence: LINLVQYRIL
Kd (HLA-A*02:02; [2]): 2120 nM
Kd (HLA-A*02:06; [2]): 15900 nM
Kd (HLA-A*02:03; [2]): 2250 nM

Sequence: LISILMIFI
Kd (HLA-A*02:02; [2]): 2370 nM
Kd (HLA-A*02:06; [2]): 7040 nM
Kd (HLA-A*02:03; [2]): ≥ 5000 nM

Sequence: LISSDGARVI
Kd (HLA-A*02:02; [2]): 7180 nM
Kd (HLA-A*02:06; [2]): ≥ 35000 nM
Kd (HLA-A*02:03; [2]): 1150 nM

Sequence: NLKYTVIITV
Kd (HLA-A*02:03; [6]): 9.29 nM

Sequence: NTKSDIDVIK
Kd (HLA-A*31:01; [2]): 4030 nM
Kd (HLA-A*11:01; [2]): 68.4 nM
Kd (HLA-A*33:01; [2]): 970 nM
Kd (HLA-A*03:01; [2]): 8260 nM
Kd (HLA-A*68:01; [2]): 0.547 nM

Sequence: NYSKYWYLNH
Kd (HLA-A*31:01; [7]): 1480 nM
Kd (HLA-A*11:01; [7]): ≥ 21800 nM
Kd (HLA-A*33:01; [7]): 863 nM
Kd (HLA-A*03:01; [7]): ≥ 70000 nM
Kd (HLA-A*68:01; [7]): ≥ 70100 nM

Sequence: NYTRFWYINH
Kd (HLA-A*31:01; [3]): 1340 nM
Kd (HLA-A*11:01; [3]): 12300 nM
Kd (HLA-A*33:01; [3]): 48.8 nM
Kd (HLA-A*03:01; [3]): 9020 nM
Kd (HLA-A*68:01; [3]): 4140 nM

Sequence: PCPLPHRLDR
Kd (HLA-A*31:01; [3]): 2940 nM
Kd (HLA-A*11:01; [3]): ≥ 69700 nM
Kd (HLA-A*33:01; [3]): ≥ 21800 nM
Kd (HLA-A*03:01; [3]): ≥ 70000 nM
Kd (HLA-A*68:01; [3]): ≥ 31100 nM

Sequence: PIGMQFDKVY
Kd (HLA-A*31:01; [2]): ≥ 70000 nM
Kd (HLA-A*11:01; [2]): 1230 nM
Kd (HLA-A*33:01; [2]): ≥ 70000 nM
Kd (HLA-A*03:01; [2]): ≥ 70100 nM
Kd (HLA-A*68:01; [2]): 13000 nM

Sequence: QCKDLCHMH
Kd (HLA-A*31:01; [8]): 526 nM
Kd (HLA-A*11:01; [8]): ≥ 77900 nM
Kd (HLA-A*33:01; [8]): 12300 nM
Kd (HLA-A*03:01; [8]): ≥ 71900 nM
Kd (HLA-A*68:01; [8]): 1520 nM
